Data set [1] deals with the molecule itself. Briefly: non-reducing SDS-PAGE and Western blot with anti-Asp14. A general note: In western blotting, separated proteins are transferred to a membrane and probed.
Data set [2] addresses T1, PSGL-1 (sLe^x-capped, sialylated) on PSGL-1 CHO cells (UniProt Q14242 42-412, sLe^x-capped (alpha2,3-sialylated, alpha1,3-fucosylated glycan)).
T1 construct: whole, on cells; also called sLe^x-modified PSGL-1; sialylated PSGL-1
T1 sequence: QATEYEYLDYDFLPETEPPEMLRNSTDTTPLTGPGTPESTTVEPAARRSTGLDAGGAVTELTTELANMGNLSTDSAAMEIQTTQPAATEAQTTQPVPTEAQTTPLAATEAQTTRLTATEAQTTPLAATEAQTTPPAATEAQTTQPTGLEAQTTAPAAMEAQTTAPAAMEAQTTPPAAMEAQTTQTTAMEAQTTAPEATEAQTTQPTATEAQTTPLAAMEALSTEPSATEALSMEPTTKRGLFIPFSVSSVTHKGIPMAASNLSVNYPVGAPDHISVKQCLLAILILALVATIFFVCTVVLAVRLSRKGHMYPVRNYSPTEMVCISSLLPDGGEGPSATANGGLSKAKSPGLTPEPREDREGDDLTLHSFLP
Briefly: PSGL-1 CHO cells preincubated with GST-OmpA, Aph adherence counted (competition with the bacteria).

From patent US20170269080A1 (VIRGINIA COMMONWEALTH UNIVERSITY, published 2017) come the findings set out here.

B1: GST-Asp14 (N-terminal glutathione-S-transferase-tagged A. phagocytophilum Asp14) (other)
chain: MIPLAPWKSISVVYMSGSDEYKEIIKQCIGSVKEVFGEGRFDDVVASIMKMQEKVLASSMQQDDTGTVGQIESGEGSGARLSDEQVQQLMNSIREEFKDDLRAIKRRILKLERAVYGANTPKES
notes: Coding region of asp14 (13.8 kDa) fused to GST; also called recombinant Asp14; not shown: glutathione-S-transferase (GST) tag, N-terminal, from vector pDest-15
For B1, the binding result in data set [1] is recorded as “binds”.

B2: GST-OmpA (N-terminal glutathione-S-transferase-tagged A. phagocytophilum OmpA without signal sequence) (other)
chain: CGTLLPDSNVGVGRHDLGSHRSVAFAKKVEKVYFDIGKYDLKGPGKKVILELVEQLRQDDSMYLVVIGHADATGTEEYSLALGEKRANAVKQFIIGCDKSLAPRVTTQSRGKAEPEVLVYSTDAQEVEKANAQNRRAVIVVEFAHIPRSGVADMHAPVASSITSENSNASAEGEDMEASEFSSAIAN
notes: also called GST-tagged Aph OmpA; GST-ApOmpA; not shown: glutathione-S-transferase (GST) tag, N-terminal, from vector pDest-15
For the molecule B2, the “reduction of Aph binding to sLe^x-modified PSGL-1 relative to GST alone” value in data set [2] is around 60%.
